Test results reported in patent US20260184748A1, “COMPOSITIONS COMPRISING OCTADECANEUROPEPTIDES (ODN) AND SYNTHETIC DERIVATIVES THEREOF AND METHODS OF USE FOR MODULATION OF FOOD INTAKE, OBESITY, BODY WEIGHT, NAUSEA, AND EMESIS” (The Trustees of the University of Pennsylvania, priority 2022, published 2026).
Where no end group is shown, it is not given here.

Legend:
Experiment in all cases: cell-based or functional assay
CXCR6 = CXCR6 (UniProt O00574)
CCR4 = biological target: T1, CCR4 (UniProt P51679)
T1 sequence (looked up): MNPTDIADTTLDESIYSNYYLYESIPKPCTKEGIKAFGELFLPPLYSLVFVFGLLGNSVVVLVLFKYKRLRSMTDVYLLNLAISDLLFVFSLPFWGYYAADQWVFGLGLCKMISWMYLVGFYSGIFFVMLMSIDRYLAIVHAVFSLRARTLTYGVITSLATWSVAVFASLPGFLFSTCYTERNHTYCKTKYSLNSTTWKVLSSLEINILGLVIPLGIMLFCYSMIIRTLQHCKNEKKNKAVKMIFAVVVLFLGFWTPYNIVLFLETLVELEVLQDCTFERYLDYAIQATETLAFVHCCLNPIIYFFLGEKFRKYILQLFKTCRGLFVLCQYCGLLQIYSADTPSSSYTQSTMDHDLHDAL

CCR8 = CCR8 (UniProt P51685)
DRD2L, P14416 = biological target: DRD2L, P14416
F2R, P25116 = biological target: F2R, P25116
Chain of F2R, P25116 (P25116 22-425): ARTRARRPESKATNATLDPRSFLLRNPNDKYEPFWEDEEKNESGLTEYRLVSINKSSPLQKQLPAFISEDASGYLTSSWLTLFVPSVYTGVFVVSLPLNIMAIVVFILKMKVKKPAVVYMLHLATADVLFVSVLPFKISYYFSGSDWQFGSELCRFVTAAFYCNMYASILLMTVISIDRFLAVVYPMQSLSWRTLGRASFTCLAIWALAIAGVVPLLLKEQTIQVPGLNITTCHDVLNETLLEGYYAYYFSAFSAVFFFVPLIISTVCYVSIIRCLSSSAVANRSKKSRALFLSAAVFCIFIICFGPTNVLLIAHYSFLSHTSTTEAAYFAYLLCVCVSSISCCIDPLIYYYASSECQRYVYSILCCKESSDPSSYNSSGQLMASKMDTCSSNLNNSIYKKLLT

CXCR3 = CXCR3 (UniProt P49682)
Chain of CXCR3 (P49682 whole entry): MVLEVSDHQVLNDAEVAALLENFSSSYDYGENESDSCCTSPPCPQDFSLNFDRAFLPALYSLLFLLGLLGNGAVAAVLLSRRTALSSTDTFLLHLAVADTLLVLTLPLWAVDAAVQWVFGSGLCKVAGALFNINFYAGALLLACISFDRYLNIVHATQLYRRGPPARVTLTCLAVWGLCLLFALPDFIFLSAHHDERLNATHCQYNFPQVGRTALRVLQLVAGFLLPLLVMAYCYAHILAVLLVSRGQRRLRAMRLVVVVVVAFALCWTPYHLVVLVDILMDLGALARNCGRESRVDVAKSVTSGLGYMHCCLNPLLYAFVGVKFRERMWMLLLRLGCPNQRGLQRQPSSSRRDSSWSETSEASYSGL

UTR2 = biological target: T2, UTR2 (UniProt Q9UKP6)
T2 sequence (looked up): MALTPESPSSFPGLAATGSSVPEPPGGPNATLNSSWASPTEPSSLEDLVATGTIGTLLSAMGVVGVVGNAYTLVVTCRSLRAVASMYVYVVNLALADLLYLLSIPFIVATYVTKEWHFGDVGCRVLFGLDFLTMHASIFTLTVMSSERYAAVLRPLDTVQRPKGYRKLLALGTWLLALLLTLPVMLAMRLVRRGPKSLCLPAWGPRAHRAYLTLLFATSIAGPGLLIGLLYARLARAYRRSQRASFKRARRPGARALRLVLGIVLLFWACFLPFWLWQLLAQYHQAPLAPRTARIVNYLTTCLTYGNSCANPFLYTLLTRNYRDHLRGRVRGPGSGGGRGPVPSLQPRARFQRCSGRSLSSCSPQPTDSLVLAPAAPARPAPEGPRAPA

NPSR1B = biological target: T3, NPSR1B (UniProt Q6W5P4)
T3 sequence (looked up): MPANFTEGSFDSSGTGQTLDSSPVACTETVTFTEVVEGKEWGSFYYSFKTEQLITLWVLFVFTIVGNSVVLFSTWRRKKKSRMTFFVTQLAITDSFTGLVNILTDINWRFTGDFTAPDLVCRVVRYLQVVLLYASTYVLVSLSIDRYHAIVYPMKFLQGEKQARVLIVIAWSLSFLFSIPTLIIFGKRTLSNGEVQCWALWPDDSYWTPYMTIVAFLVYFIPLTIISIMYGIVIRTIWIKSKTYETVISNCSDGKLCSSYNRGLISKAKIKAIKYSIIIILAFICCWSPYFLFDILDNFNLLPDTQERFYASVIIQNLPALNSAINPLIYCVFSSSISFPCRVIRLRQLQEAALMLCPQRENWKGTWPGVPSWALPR

CCR10 = biological target: T4, CCR10 (UniProt P46092)
T4 sequence (looked up): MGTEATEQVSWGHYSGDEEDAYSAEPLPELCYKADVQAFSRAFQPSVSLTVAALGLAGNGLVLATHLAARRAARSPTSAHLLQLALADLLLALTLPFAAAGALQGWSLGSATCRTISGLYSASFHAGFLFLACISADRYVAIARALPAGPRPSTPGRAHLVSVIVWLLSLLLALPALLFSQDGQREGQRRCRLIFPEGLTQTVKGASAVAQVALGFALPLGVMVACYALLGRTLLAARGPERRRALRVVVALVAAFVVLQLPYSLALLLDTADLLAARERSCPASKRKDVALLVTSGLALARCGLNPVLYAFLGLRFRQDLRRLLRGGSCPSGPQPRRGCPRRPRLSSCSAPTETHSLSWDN

MCHR1 = MCHR1 (UniProt Q99705)
Chain of MCHR1 (Q99705 whole entry): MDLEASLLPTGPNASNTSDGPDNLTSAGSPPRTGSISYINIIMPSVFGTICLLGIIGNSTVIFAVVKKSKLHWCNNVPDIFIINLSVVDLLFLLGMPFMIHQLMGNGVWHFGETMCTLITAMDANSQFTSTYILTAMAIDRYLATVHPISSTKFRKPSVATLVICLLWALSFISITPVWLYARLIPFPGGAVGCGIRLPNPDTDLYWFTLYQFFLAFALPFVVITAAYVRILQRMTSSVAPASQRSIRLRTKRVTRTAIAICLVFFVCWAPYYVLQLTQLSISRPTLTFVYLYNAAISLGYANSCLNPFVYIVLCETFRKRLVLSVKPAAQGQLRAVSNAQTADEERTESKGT

MCHR2 = MCHR2 (UniProt Q969V1)
Chain of MCHR2 (Q969V1 whole entry): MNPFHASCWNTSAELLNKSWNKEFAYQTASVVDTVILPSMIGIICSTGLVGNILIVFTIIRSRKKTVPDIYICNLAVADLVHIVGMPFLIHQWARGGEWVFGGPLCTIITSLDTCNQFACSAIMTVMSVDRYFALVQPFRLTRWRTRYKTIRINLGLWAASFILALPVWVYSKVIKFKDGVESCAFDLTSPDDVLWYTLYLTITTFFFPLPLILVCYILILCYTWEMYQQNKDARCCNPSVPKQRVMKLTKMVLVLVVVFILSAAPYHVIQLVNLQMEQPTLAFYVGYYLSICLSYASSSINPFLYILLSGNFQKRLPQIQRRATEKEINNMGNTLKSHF

NPBWR2 = NPBWR2 (UniProt P48146)
Chain of NPBWR2 (P48146 whole entry): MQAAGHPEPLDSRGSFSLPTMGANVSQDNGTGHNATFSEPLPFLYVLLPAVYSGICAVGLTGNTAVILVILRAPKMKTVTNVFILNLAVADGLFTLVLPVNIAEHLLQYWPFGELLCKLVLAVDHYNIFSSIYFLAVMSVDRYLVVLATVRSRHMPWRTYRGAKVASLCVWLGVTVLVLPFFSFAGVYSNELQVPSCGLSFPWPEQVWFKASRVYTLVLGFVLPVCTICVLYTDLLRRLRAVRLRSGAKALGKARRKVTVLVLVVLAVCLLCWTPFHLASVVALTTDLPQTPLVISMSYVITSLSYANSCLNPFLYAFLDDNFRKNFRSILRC

NPBWR1 = biological target: T5, NPBWR1 (UniProt P48145)
T5 sequence (looked up): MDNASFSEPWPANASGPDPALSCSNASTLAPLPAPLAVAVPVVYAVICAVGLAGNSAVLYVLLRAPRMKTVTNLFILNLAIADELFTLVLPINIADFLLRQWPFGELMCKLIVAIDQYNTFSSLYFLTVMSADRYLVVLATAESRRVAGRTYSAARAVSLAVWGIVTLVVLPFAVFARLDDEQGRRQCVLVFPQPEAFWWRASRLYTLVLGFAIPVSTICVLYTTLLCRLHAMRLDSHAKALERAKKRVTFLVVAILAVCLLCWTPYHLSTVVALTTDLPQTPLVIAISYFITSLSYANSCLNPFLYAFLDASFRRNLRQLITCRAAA

GPR103 = GPR103 (UniProt Q96P65)
Chain of GPR103 (Q96P65 whole entry): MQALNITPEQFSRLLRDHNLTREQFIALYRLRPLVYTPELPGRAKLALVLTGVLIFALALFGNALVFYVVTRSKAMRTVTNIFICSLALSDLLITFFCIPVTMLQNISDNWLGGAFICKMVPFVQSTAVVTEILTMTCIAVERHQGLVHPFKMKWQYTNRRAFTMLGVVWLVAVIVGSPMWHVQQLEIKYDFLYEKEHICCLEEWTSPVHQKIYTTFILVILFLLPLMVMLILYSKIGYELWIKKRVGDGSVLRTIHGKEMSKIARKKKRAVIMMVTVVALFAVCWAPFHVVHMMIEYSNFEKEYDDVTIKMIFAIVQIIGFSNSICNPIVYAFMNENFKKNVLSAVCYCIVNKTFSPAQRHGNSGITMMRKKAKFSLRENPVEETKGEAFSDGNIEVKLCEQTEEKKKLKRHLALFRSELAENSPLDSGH

CXCR5 = CXCR5 (UniProt P32302)
Chain of CXCR5 (P32302 whole entry): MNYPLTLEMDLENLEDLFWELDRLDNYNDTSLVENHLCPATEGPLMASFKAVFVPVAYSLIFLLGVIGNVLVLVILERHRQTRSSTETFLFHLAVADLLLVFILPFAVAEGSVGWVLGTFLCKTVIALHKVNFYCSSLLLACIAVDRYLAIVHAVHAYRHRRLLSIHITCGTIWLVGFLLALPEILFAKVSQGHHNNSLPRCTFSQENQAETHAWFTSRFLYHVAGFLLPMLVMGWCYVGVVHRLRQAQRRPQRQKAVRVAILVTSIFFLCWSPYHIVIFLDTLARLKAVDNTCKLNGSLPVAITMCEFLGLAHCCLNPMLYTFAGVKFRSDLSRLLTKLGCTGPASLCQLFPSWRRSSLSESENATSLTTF

PROKR2 = PROKR2 (UniProt Q8NFJ6)
Chain of PROKR2 (Q8NFJ6 whole entry): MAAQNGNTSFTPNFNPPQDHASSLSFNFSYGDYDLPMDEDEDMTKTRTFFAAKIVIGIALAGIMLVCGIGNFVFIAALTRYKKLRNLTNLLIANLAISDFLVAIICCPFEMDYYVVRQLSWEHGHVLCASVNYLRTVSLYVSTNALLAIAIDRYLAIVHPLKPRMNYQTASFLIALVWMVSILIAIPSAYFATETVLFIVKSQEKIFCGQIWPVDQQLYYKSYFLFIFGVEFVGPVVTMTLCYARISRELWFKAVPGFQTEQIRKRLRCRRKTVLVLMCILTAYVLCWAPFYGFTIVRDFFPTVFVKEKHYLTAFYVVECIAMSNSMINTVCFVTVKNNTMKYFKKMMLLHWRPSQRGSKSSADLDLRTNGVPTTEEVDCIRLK

PROKR1 = PROKR1 (UniProt Q8TCW9)
Chain of PROKR1 (Q8TCW9 whole entry): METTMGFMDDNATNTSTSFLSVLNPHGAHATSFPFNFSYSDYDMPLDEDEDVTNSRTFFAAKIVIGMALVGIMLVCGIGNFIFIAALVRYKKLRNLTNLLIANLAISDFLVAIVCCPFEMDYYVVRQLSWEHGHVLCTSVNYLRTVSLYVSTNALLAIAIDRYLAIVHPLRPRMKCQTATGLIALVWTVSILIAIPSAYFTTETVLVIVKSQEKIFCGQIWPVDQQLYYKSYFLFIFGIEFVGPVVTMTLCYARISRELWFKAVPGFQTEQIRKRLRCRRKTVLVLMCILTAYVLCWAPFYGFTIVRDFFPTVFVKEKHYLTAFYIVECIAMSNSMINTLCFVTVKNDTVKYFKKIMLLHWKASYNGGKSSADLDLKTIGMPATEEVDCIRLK

NMU1R = NMU1R (UniProt Q9HB89)
Chain of NMU1R (Q9HB89 whole entry): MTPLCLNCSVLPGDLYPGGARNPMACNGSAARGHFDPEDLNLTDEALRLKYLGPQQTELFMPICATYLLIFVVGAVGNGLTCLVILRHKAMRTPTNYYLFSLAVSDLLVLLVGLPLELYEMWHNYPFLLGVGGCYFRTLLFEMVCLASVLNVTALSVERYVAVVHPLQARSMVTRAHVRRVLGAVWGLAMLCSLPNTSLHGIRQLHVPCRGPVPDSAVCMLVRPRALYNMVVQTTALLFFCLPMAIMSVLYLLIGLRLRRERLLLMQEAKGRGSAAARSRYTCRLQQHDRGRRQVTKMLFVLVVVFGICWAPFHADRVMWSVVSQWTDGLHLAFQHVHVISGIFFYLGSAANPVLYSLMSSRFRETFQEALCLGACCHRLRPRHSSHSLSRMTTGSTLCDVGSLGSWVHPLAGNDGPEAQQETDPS

PPYR1 = PPYR1 (UniProt P50391)
Chain of PPYR1 (P50391 whole entry): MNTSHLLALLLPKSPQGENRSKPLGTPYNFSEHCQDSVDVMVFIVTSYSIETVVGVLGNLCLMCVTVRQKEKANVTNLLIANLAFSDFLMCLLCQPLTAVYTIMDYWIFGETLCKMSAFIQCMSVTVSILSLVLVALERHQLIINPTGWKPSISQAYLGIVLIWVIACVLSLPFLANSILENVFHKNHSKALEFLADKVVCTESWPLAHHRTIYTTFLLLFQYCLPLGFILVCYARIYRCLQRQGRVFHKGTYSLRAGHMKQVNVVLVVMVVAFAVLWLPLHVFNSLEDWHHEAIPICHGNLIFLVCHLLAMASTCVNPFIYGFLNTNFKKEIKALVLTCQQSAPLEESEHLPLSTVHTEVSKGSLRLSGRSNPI

CRHR1 = CRHR1 (UniProt P34998)
Chain of CRHR1 (P34998 24-415 limits assumed): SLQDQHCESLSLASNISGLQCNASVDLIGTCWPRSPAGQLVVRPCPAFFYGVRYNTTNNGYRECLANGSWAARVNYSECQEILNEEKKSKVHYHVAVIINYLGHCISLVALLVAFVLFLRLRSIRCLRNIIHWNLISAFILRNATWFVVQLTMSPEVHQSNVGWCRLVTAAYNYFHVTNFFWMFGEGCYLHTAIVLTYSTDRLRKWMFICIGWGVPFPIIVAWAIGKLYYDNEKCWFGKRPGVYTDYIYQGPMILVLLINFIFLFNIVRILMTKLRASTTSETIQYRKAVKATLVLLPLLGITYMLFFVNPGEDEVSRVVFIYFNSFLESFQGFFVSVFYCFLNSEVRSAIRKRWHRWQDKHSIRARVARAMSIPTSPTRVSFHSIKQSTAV

CRHR2 = biological target: T6, CRHR2 (UniProt Q13324)
T6 sequence (looked up): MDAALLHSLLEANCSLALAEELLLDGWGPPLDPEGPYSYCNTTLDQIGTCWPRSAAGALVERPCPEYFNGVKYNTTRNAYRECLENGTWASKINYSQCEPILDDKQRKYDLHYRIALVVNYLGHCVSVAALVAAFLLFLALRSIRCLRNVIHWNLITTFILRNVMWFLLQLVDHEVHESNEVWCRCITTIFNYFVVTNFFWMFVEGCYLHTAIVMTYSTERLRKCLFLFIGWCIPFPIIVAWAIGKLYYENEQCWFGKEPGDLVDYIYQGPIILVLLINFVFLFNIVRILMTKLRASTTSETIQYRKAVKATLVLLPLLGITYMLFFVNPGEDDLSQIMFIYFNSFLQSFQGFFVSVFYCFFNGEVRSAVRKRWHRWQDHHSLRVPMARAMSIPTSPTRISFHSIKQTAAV

Chain of CXCR6 (O00574 whole entry): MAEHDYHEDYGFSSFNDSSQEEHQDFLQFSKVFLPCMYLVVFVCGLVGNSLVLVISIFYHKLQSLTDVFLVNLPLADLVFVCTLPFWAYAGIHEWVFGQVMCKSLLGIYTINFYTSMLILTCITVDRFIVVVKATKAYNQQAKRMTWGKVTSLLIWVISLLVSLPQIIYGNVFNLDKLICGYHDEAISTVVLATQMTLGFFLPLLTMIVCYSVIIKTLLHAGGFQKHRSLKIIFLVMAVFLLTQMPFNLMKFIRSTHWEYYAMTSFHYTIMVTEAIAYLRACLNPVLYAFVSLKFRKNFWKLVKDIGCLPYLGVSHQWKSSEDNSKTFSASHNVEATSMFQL

B1: CXCL16 (ligand, UniProt Q9H2A7 30-118, looked up)
chain: NEGSVTGSCYCGKRISSDSPPSVQFMNRLRKHLRAYHRCLYYTRFQLLSWSVCGGNKDPWVQELMSCLDLKECGHAYSGIVAHQKHLLP
EC50 (RC50), arrestin, agonist mode (CXCR6): 6.81 nM | EC80, arrestin, agonist mode (CXCR6): 21 nM

B2: CCL22 (ligand, UniProt O00626 25-93, looked up)
chain: GPYGANMEDSVCCRDYVRYRLPLRVVKHFYWTSDSCPRPGVVLLTFRDKEICADPRVPWVKMILNKLSQ
EC50 (RC50), arrestin, agonist mode (CCR4): 3.44 nM | EC80, arrestin, agonist mode (CCR4): 19.7 nM

B3: CCL1 (ligand, UniProt P22362 24-96, looked up)
chain: KSMQVPFSRCCFSFAEQEIPLRAILCYRNTSSICSNEGLIFKLKRGKEACALDTVGWVQRHRKMLRHCPSKRK
EC50 (RC50), arrestin, agonist mode (CCR8): 45.8 nM | EC80, arrestin, agonist mode (CCR8): 159 nM

QATVGDVNTDRPGLLDLK (also: synthesised on Rink amide resin, C-terminal amide not given here outright) [octadecaneuropeptide (ODN)]
% Activity, arrestin, antagonist mode, 2.5 uM (DRD2L, P14416): -16.8% | % Activity, arrestin, antagonist mode, 2.5 uM (F2R, P25116): -17%

B4: CXCL11 (ligand, UniProt O14625 22-94, looked up)
chain: FPMFKRGRCLCIGPGVKAVKVADIEKASIMYPSNNCDKIEVIITLKENKGQRCLNPKSKQARLIIKKVERKNF
EC50 (RC50), arrestin, agonist mode (CXCR3): 12 nM | EC80, arrestin, agonist mode (CXCR3): 17.9 nM

ETPDCFWKYCV (peptide, UniProt O95399 114-124, looked up) [Urotensin II]
EC50 (RC50), arrestin, agonist mode (UTR2): 1.19 nM | EC80, arrestin, agonist mode (UTR2): 4.22 nM

SFRNGVGTGMKKTSFQRAKS (peptide, UniProt P0C0P6 70-89, looked up) [Neuropeptide S]
EC50 (RC50), arrestin, agonist mode (NPSR1B): 23.6 nM | EC80, arrestin, agonist mode (NPSR1B): 45.4 nM

B5: CCL27 (ligand, UniProt Q9Y4X3 25-112, looked up)
chain: FLLPPSTACCTQLYRKPLSDKLLRKVIQVELQEADGDCHLQAFVLHLAQRSICIHPQNPSLSQWFEHQERKLHGTLPKLNFGMLRKMG
EC50 (RC50), arrestin, agonist mode (CCR10): 26.3 nM | EC80, arrestin, agonist mode (CCR10): 109 nM

DFDMLRCMLGRVYRPCWQV (peptide, UniProt P20382 147-165, looked up) [MCH]
EC50 (RC50), arrestin, agonist mode (MCHR1): 167 nM | EC80, arrestin, agonist mode (MCHR1): 444 nM | EC50 (RC50), arrestin, agonist mode (MCHR2): 5.51 nM | EC80, arrestin, agonist mode (MCHR2): 20.2 nM

WYKHVASPRYHTVGRAAGLLMGL (peptide, UniProt Q8N729 33-55, looked up) [Neuropeptide W23]
EC50 (RC50), arrestin, agonist mode (NPBWR2): 3.62 nM | EC80, arrestin, agonist mode (NPBWR2): 12.2 nM | EC50 (RC50), arrestin, agonist mode (NPBWR1): 2.17 nM | EC80, arrestin, agonist mode (NPBWR1): 8.01 nM

TSGPLGNLAEELNGYSRKKGGFSFRF (peptide, UniProt P83859 108-133, looked up) [QRFP-26]
EC50 (RC50), arrestin, agonist mode (GPR103): 10 nM | EC80, arrestin, agonist mode (GPR103): 27.1 nM

B6: CXCL13 (ligand, UniProt O43927 23-109, looked up)
chain: VLEVYYTSLRCRCVQESSVFIPRRFIDRIQILPRGNGCPRKEIIVWKKNKSIVCVDPQAEWIQRMMEVLRKRSSSTLPVPVFKRKIP
EC50 (RC50), arrestin, agonist mode (CXCR5): 21 nM | EC80, arrestin, agonist mode (CXCR5): 61.2 nM

B7: EG VEGF (ligand, UniProt P58294 20-105, looked up)
chain: AVITGACERDVQCGAGTCCAISLWLRGLRMCTPLGREGEECHPGSHKVPFFRKRKHHTCPCLPNLLCSRFPDGRYRCSMDLKNINF
EC50 (RC50), arrestin, agonist mode (PROKR2): 10.6 nM | EC80, arrestin, agonist mode (PROKR2): 30 nM | EC50 (RC50), arrestin, agonist mode (PROKR1): 17.7 nM | EC80, arrestin, agonist mode (PROKR1): 53.7 nM

FRVDEEFQSPFASQSRGYFLFRPRN (peptide, UniProt P48645 142-166, looked up) [Neuromedin U-25]
EC50 (RC50), arrestin, agonist mode (NMU1R): 1.43 nM | EC80, arrestin, agonist mode (NMU1R): 3.68 nM

APLEPVYPGDNATPEQMAQYAADLRRYINMLTRPRY (peptide, UniProt P01298 30-65, looked up) [Pancreatic Polypeptide]
EC50 (RC50), arrestin, agonist mode (PPYR1): 1.5 nM | EC80, arrestin, agonist mode (PPYR1): 5 nM

QGPPISIDLSLELLRKMIEIEKQEKEKQQAANNRLLLDTI (peptide, UniProt P01144 1-40, looked up) [Sauvagine]
EC50 (RC50), arrestin, agonist mode (CRHR1): 3.28 nM | EC80, arrestin, agonist mode (CRHR1): 10.3 nM | EC50 (RC50), arrestin, agonist mode (CRHR2): 5.99 nM | EC80, arrestin, agonist mode (CRHR2): 24.5 nM

TFLLR-NH2 [TFLLR-NH2]
EC50 (RC50), arrestin, agonist mode (F2R, P25116): 14500 nM | EC80, arrestin, agonist mode (F2R, P25116): 28700 nM
